The source of these data is patent publication US20170190753A1 (LABORATOIRE FRANCAIS DU FRACTIONNEMENT ET DES …, published 2017).

The chains are these.
B1: pCEP4-1NT8-13CT20 (other)
chain: EDCNELPPRRNTEILTGSWSDQTYPEGTQAIYKCRPGYRSLGNVIMVCRKGEWVALNPLRKCQKRPCGHPGDTPFGTFTLTGGNVFEYGVKAVYTCNEGYQLLGEINYRECDTDGWTNDIPICEVVKCLPVTAPENGKIVSSAMEPDREYHFGQAVRFVCNSGYKIEGDEEMHCSDDGFWSKEKPKCVEISCKSPDVINGSPISQKIIYKENERFQYKCNMGYEYSERGDAVCTESGWRPLPSCEEKSCDNPYIPNGDYSPLRIKHRTGDEITYQCRNGFYPATRGNTAKCTSTGWIPAPRCTLKPCDYPDIKHGGLYHENMRRPYFPVAVGKYYSYYCDEHFETPSGSYWDHIHCTQDGWSPAVPCLRKCYFPYLENGYNQNHGRKFVQGKSIDVACHPGYALPKAQTTVTCMENGWSPTPRCIRVKTCSKSSIDIENGFISESQYTYALKEKAKYQCKLGYVTADGETSGSITCGKDGWSAQPTCIKSGASGCKSSNLIILEEHLKNKKEFDHNSNIRYRCRGKEGWIHTVCINGRWDPEVNCSMAQIQLCPPPPQIPNSHNMTTTLNYRDGEKVSVLCQENYLIQEGEEITCKDGRWQSIPLCVEKIPCSQPPQIEHGTINSSRSSQESYAHGTKLSYTCEGGFRISEENETTCYMGKWSSPPQCEGLPCKSPPEISHGVVAHMSDSYQYGEEVTYKCFEGFGIDGPAIAKCLGEKWSHPPSCIKTDCLSLPSFENAIPMGEKKDVYKAGEQVTYTCATYYKMDGASNVTCINSRWTGRPTCRDTSCVNPPTVQNAYIVSRQMSKYPSGERVRYQCRSPYEMFGDEEVMCLNGNWTEPPQCKDSTGKCGPPPPIDNGDITSFPLSVYAPASSVEYQCQNLYQLEGNKRITCRNGQWSEPPKCLHPCVISREIMENYNIALRWTAKQKLYSRTGESVEFVCKRGYRLSSRSHTLRTTCWDGKLEYPTCAKRGGSGHHHHHH
B2: pCEP4-1NT13-14CT20 (other)
chain: EDCNELPPRRNTEILTGSWSDQTYPEGTQAIYKCRPGYRSLGNVIMVCRKGEWVALNPLRKCQKRPCGHPGDTPFGTFTLTGGNVFEYGVKAVYTCNEGYQLLGEINYRECDTDGWTNDIPICEVVKCLPVTAPENGKIVSSAMEPDREYHFGQAVRFVCNSGYKIEGDEEMHCSDDGFWSKEKPKCVEISCKSPDVINGSPISQKIIYKENERFQYKCNMGYEYSERGDAVCTESGWRPLPSCEEKSCDNPYIPNGDYSPLRIKHRTGDEITYQCRNGFYPATRGNTAKCTSTGWIPAPRCTLKPCDYPDIKHGGLYHENMRRPYFPVAVGKYYSYYCDEHFETPSGSYWDHIHCTQDGWSPAVPCLRKCYFPYLENGYNQNHGRKFVQGKSIDVACHPGYALPKAQTTVTCMENGWSPTPRCIRVKTCSKSSIDIENGFISESQYTYALKEKAKYQCKLGYVTADGETSGSITCGKDGWSAQPTCIKSCDIPVFMNARTKNDFTWFKLNDTLDYECHDGYESNTGSTTGSIVCGYNGWSDLPICYERECELPKIDVHLVPDRKKDQYKVGEVLKFSCKPGFTIVGPNSVQCYHFGLSPDLPICKEQVQSCGPPPELLNGNVKEKTKEEYGHSEVVEYYCNPRFLMKGPNKIQCVDGEWTTLPVCIVEESTCGDIPELEHGWAQLSSPPYYYGDSVEFNCSESFTMIGHRSITCIHGVWTQLPQCVAIDKLKKCKSSNLIILEEHLKNKKEFDHNSNIRYRCRGKEGWIHTVCINGRWDPEVNCSMAQIQLGASGCPPPPQIPNSHNMTTTLNYRDGEKVSVLCQENYLIQEGEEITCKDGRWQSIPLCVEKIPCSQPPQIEHGTINSSRSSQESYAHGTKLSYTCEGGFRISEENETTCYMGKWSSPPQCEGLPCKSPPEISHGVVAHMSDSYQYGEEVTYKCFEGFGIDGPAIAKCLGEKWSHPPSCIKTDCLSLPSFENAIPMGEKKDVYKAGEQVTYTCATYYKMDGASNVTCINSRWTGRPTCRDTSCVNPPTVQNAYIVSRQMSKYPSGERVRYQCRSPYEMFGDEEVMCLNGNWTEPPQCKDSTGKCGPPPPIDNGDITSFPLSVYAPASSVEYQCQNLYQLEGNKRITCRNGQWSEPPKCLHPCVISREIMENYNIALRWTAKQKLYSRTGESVEFVCKRGYRLSSRSHTLRTTCWDGKLEYPTCAKRGGSGHHHHHH
B3: pCEP4-1NT9-19CT20 (other)
chain: EDCNELPPRRNTEILTGSWSDQTYPEGTQAIYKCRPGYRSLGNVIMVCRKGEWVALNPLRKCQKRPCGHPGDTPFGTFTLTGGNVFEYGVKAVYTCNEGYQLLGEINYRECDTDGWTNDIPICEVVKCLPVTAPENGKIVSSAMEPDREYHFGQAVRFVCNSGYKIEGDEEMHCSDDGFWSKEKPKCVEISCKSPDVINGSPISQKIIYKENERFQYKCNMGYEYSERGDAVCTESGWRPLPSCEEKSCDNPYIPNGDYSPLRIKHRTGDEITYQCRNGFYPATRGNTAKCTSTGWIPAPRCTLKPCDYPDIKHGGLYHENMRRPYFPVAVGKYYSYYCDEHFETPSGSYWDHIHCTQDGWSPAVPCLRKCYFPYLENGYNQNYGRKFVQGKSIDVACHPGYALPKAQTTVTCMENGWSPTPRCIRVKTCSKSSIDIENGFISESQYTYALKEKAKYQCKLGYVTADGETSGSITCGKDGWSAQPTCIKSCDIPVFMNARTKNDFTWFKLNDTLDYECHDGYESNTGSTTGSIVCGYNGWSDLPICYEREGASGCGPPPPIDNGDITSFPLSVYAPASSVEYQCQNLYQLEGNKRITCRNGQWSEPPKCLHPCVISREIMENYNIALRWTAKQKLYSRTGESVEFVCKRGYRLSSRSHTLRTTCWDGKLEYPTCAKRGGSGHHHHHH
B4: pCEP4-1NT4-10CT20 (other)
chain: EDCNELPPRRNTEILTGSWSDQTYPEGTQAIYKCRPGYRSLGNVIMVCRKGEWVALNPLRKCQKRPCGHPGDTPFGTFTLTGGNVFEYGVKAVYTCNEGYQLLGEINYRECDTDGWTNDIPICEVVKCLPVTAPENGKIVSSAMEPDREYHFGQAVRFVCNSGYKIEGDEEMHCSDDGFWSKEKPKCVEISCKSPDVINGSPISQKIIYKENERFQYKCNMGYEYSERGDAVCTESGWRPLPSCEEKSGASGCELPKIDVHLVPDRKKDQYKVGEVLKFSCKPGFTIVGPNSVQCYHFGLSPDLPICKEQVQSCGPPPELLNGNVKEKTKEEYGHSEVVEYYCNPRFLMKGPNKIQCVDGEWTTLPVCIVEESTCGDIPELEHGWAQLSSPPYYYGDSVEFNCSESFTMIGHRSITCIHGVWTQLPQCVAIDKLKKCKSSNLIILEEHLKNKKEFDHNSNIRYRCRGKEGWIHTVCINGRWDPEVNCSMAQIQLCPPPPQIPNSHNMTTTLNYRDGEKVSVLCQENYLIQEGEEITCKDGRWQSIPLCVEKIPCSQPPQIEHGTINSSRSSQESYAHGTKLSYTCEGGFRISEENETTCYMGKWSSPPQCEGLPCKSPPEISHGVVAHMSDSYQYGEEVTYKCFEGFGIDGPAIAKCLGEKWSHPPSCIKTDCLSLPSFENAIPMGEKKDVYKAGEQVTYTCATYYKMDGASNVTCINSRWTGRPTCRDTSCVNPPTVQNAYIVSRQMSKYPSGERVRYQCRSPYEMFGDEEVMCLNGNWTEPPQCKDSTGKCGPPPPIDNGDITSFPLSVYAPASSVEYQCQNLYQLEGNKRITCRNGQWSEPPKCLHPCVISREIMENYNIALRWTAKQKLYSRTGESVEFVCKRGYRLSSRSHTLRTTCWDGKLEYPTCAKRGGSGHHHHHH
B5: pCEP4-1NT9-12CT20 (other)
chain: EDCNELPPRRNTEILTGSWSDQTYPEGTQAIYKCRPGYRSLGNVIMVCRKGEWVALNPLRKCQKRPCGHPGDTPFGTFTLTGGNVFEYGVKAVYTCNEGYQLLGEINYRECDTDGWTNDIPICEVVKCLPVTAPENGKIVSSAMEPDREYHFGQAVRFVCNSGYKIEGDEEMHCSDDGFWSKEKPKCVEISCKSPDVINGSPISQKIIYKENERFQYKCNMGYEYSERGDAVCTESGWRPLPSCEEKSCDNPYIPNGDYSPLRIKHRTGDEITYQCRNGFYPATRGNTAKCTSTGWIPAPRCTLKPCDYPDIKHGGLYHENMRRPYFPVAVGKYYSYYCDEHFETPSGSYWDHIHCTQDGWSPAVPCLRKCYFPYLENGYNQNHGRKFVQGKSIDVACHPGYALPKAQTTVTCMENGWSPTPRCIRVKTCSKSSIDIENGFISESQYTYALKEKAKYQCKLGYVTADGETSGSITCGKDGWSAQPTCIKSCDIPVFMNARTKNDFTWFKLNDTLDYECHDGYESNTGSTTGSIVCGYNGWSDLPICYEREGASGCGDIPELEHGWAQLSSPPYYYGDSVEFNCSESFTMIGHRSITCIHGVWTQLPQCVAIDKLKKCKSSNLIILEEHLKNKKEFDHNSNIRYRCRGKEGWIHTVCINGRWDPEVNCSMAQIQLCPPPPQIPNSHNMTTTLNYRDGEKVSVLCQENYLIQEGEEITCKDGRWQSIPLCVEKIPCSQPPQIEHGTINSSRSSQESYAHGTKLSYTCEGGFRISEENETTCYMGKWSSPPQCEGLPCKSPPEISHGVVAHMSDSYQYGEEVTYKCFEGFGIDGPAIAKCLGEKWSHPPSCIKTDCLSLPSFENAIPMGEKKDVYKAGEQVTYTCATYYKMDGASNVTCINSRWTGRPTCRDTSCVNPPTVQNAYIVSRQMSKYPSGERVRYQCRSPYEMFGDEEVMCLNGNWTEPPQCKDSTGKCGPPPPIDNGDITSFPLSVYAPASSVEYQCQNLYQLEGNKRITCRNGQWSEPPKCLHPCVISREIMENYNIALRWTAKQKLYSRTGESVEFVCKRGYRLSSRSHTLRTTCWDGKLEYPTCAKRGGSGHHHHHH
B6: pCEP4-1NT4-8CT20 (other)
chain: EDCNELPPRRNTEILTGSWSDQTYPEGTQAIYKCRPGYRSLGNVIMVCRKGEWVALNPLRKCQKRPCGHPGDTPFGTFTLTGGNVFEYGVKAVYTCNEGYQLLGEINYRECDTDGWTNDIPICEVVKCLPVTAPENGKIVSSAMEPDREYHFGQAVRFVCNSGYKIEGDEEMHCSDDGFWSKEKPKCVEISCKSPDVINGSPISQKIIYKENERFQYKCNMGYEYSERGDAVCTESGWRPLPSCEEKSGASGCSKSSIDIENGFISESQYTYALKEKAKYQCKLGYVTADGETSGSITCGKDGWSAQPTCIKSCDIPVFMNARTKNDFTWFKLNDTLDYECHDGYESNTGSTTGSIVCGYNGWSDLPICYERECELPKIDVHLVPDRKKDQYKVGEVLKFSCKPGFTIVGPNSVQCYHFGLSPDLPICKEQVQSCGPPPELLNGNVKEKTKEEYGHSEVVEYYCNPRFLMKGPNKIQCVDGEWTTLPVCIVEESTCGDIPELEHGWAQLSSPPYYYGDSVEFNCSESFTMIGHRSITCIHGVWTQLPQCVAIDKLKKCKSSNLIILEEHLKNKKEFDHNSNIRYRCRGKEGWIHTVCINGRWDPEVNCSMAQIQLCPPPPQIPNSHNMTTTLNYRDGEKVSVLCQENYLIQEGEEITCKDGRWQSIPLCVEKIPCSQPPQIEHGTINSSRSSQESYAHGTKLSYTCEGGFRISEENETTCYMGKWSSPPQCEGLPCKSPPEISHGVVAHMSDSYQYGEEVTYKCFEGFGIDGPAIAKCLGEKWSHPPSCIKTDCLSLPSFENAIPMGEKKDVYKAGEQVTYTCATYYKMDGASNVTCINSRWTGRPTCRDTSCVNPPTVQNAYIVSRQMSKYPSGERVRYQCRSPYEMFGDEEVMCLNGNWTEPPQCKDSTGKCGPPPPIDNGDITSFPLSVYAPASSVEYQCQNLYQLEGNKRITCRNGQWSEPPKCLHPCVISREIMENYNIALRWTAKQKLYSRTGESVEFVCKRGYRLSSRSHTLRTTCWDGKLEYPTCAKRGGSGHHHHHH
For C3 convertase activity % of the control in this document: test concentration or dose not given here.

The target of the assay is C3 convertase complex (UniProt P01024 23-1663; P00751 260-764). As to the kind of experiment: cell-based or functional assay.
Chain of C3 convertase complex (P01024 23-1663, chain 1 of 2): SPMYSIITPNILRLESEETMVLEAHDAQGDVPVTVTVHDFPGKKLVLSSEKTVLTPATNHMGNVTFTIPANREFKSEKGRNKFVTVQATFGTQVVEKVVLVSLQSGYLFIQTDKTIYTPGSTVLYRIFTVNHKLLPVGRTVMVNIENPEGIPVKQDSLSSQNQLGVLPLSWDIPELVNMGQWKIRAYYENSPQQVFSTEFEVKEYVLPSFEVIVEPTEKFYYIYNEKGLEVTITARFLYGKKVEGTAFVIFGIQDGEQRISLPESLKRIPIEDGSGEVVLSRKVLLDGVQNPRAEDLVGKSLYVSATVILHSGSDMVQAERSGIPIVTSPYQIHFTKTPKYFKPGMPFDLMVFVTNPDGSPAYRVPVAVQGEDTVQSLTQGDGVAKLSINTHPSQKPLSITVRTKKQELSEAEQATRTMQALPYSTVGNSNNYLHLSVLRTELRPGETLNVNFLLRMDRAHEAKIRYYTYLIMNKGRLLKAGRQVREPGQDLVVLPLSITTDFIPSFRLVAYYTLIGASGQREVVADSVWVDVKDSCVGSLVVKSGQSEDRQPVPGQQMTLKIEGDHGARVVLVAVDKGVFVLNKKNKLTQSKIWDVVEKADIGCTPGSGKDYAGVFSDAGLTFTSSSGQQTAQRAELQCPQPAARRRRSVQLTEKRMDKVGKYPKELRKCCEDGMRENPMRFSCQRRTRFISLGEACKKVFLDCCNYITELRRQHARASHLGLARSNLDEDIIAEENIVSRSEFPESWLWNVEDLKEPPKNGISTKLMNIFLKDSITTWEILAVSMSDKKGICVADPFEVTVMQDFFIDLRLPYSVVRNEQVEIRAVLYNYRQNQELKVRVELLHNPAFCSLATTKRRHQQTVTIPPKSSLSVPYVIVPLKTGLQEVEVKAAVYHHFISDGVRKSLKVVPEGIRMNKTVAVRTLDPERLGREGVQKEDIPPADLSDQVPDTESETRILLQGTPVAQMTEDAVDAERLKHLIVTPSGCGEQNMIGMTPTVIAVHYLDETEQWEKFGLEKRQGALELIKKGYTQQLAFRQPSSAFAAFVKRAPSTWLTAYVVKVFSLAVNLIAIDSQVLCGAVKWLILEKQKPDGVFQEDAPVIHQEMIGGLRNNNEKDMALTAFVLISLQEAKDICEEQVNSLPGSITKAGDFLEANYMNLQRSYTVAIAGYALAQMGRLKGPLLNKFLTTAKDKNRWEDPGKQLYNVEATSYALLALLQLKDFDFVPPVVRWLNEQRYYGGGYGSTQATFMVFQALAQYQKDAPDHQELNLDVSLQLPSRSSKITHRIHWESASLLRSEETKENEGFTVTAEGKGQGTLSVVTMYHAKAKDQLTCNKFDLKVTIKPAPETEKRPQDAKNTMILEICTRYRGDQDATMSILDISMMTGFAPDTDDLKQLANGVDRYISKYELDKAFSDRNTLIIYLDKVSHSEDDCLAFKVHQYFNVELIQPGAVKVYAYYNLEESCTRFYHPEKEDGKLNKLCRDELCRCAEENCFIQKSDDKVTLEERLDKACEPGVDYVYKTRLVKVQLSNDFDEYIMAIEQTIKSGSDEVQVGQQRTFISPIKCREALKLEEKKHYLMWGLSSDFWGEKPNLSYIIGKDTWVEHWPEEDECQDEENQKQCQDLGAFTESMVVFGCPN
Chain of C3 convertase complex (P00751 260-764, chain 2 of 2): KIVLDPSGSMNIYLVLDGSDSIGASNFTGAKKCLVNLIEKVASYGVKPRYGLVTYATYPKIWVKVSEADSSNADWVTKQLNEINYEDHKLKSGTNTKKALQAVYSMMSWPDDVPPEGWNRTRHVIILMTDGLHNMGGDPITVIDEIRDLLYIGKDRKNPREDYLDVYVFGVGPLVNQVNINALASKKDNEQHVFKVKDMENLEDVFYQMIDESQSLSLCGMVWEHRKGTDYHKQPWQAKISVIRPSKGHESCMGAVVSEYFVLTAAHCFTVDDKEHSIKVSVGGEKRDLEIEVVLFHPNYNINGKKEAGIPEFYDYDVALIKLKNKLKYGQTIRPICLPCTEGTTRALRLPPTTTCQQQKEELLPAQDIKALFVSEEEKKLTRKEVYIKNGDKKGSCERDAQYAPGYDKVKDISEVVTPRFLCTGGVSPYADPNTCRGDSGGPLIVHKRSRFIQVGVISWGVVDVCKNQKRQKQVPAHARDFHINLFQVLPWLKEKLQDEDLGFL
B1: the “C3 convertase activity % of the control” value is 30 % of the control and the “C3 convertase activity IC50” value was 0.402 µg/mL.
In the case of B2, the “C3 convertase activity % of the control” value is 45 % of the control and the “C3 convertase activity IC50” value is 0.776 µg/mL.
For B3, the “C3 convertase activity % of the control” value is 49 % of the control and the “C3 convertase activity IC50” value was determined as 0.217 µg/mL.
Turning to B4, the “C3 convertase activity % of the control” value was 38 % of the control and the “C3 convertase activity IC50” value was 0.244 µg/mL.
In the case of B5, the “C3 convertase activity % of the control” value was 30 % of the control and the “C3 convertase activity IC50” value came out at 0.307 µg/mL.
Turning to B6, the “C3 convertase activity % of the control” value was 42 % of the control and the “C3 convertase activity IC50” value was determined as 0.228 µg/mL.
